Results as given in patent CN110790839A (JIANGSU HENGRUI MEDICINE CO; SHANGHAI HENGRUI …, dated 2020).
Changes are numbered by the printed parent chain.

B1: Ab05 (antibody, human IgG4 S228P, kappa, F234A L235A, V domains shown)
VH: EVQLVESGGGLVQPGGSLRLSCAASGFTFSSYMMSWVRQAPGKGLEWVATISGGGANTYFADSVKGRFTISRDNAKNSLYLQMNSLRAEDTAVYYCARTQIGFTNWGQGTTVTVSS
VL: DIQMTQSPSSLSASVGDRVTITCLASQTIGTWLTWYQQKPGKAPKLLIYTATSLADGVPSRFSGSGSGTDFTLTISSLQPEDFATYYCQQAYSIPWTFGGGTKVEIKR
notes: also called 抗PD-1抗体Ab05
B2: H005-1 (antibody, human IgG4 S228P, kappa, F234A L235A, V domains shown)
VH: B1 VH with F60Y, A61P, T99Q, Q100L, I101Y, G102Y, T104D, N105Y
VL: B1 VL with A91V
notes: Parent antibody from WO2015085847; also called 亲本抗体H005-1; H005-1抗体
B3: Ab01 (antibody, human IgG4 S228P, kappa, F234A L235A, V domains shown)
VH: B1 VH
VL: B1 VL with R18I, A91V
notes: also called 抗PD-1抗体Ab01

target: T1, 人PD-1抗原(Cat.#10377H08H，Sino Biological) (human, UniProt Q15116 25-167); assay: SPR, Biacore T200; IgG captured on Protein A chip, human PD-1 as analyte, 1:1 Langmuir fit
T1 construct: Bought reagent, used as the analyte in Biacore; also called human PD-1; PD-1-His
T1 sequence (Q15116 25-167 limits assumed): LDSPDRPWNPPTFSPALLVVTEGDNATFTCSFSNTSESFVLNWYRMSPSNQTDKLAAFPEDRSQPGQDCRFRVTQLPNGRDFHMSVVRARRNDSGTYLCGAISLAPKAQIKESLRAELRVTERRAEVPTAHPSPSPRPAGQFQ

B1 was tested. Which Kd did it give?
Its Kd is 2.8 nM.

How did the Kd turn out when B2 was run?
Its Kd is 14.6 nM.

B3 was tested. Which Kd did it give?
The Kd was 2.56 nM.
